Source: paper PMC5590460

Target: recombinant MUC5AC C terminus protein (human)
Experiment: SDS-PAGE under non-reducing and reducing conditions with western blot; purified recombinant protein from cell lysates and cell supernatants run reduced and non-reduced on 6% Bis-Tris acrylamide or 3%-8% Tris-Acetate gels, transferred to PVDF, probed with a His antibody

## recombinant MUC5AC C terminus protein (domain or fragment)
  stoichiometry N: 2
